Sequences and labels used below:
B1: Gamma-crystallin D, P07320 (parent)
chain: MGKITLYEDRGFQGRHYECSSDHPNLQPYLSRCNSARVDSGCWMLYEQPNYSGLQYFLRRGDYADHQQWMGLSDSVRSCRLIPHSGSHRIRLYEREDYRGQMIEFTEDCSCLQDRFRFNEIHSLNVLEGSWVLYELSNYRGRQYLLMPGDYRRYQDWGATNARVGSLRRVIDFS

The series covers variants of B1. The settings on record: Homo sapiens; pH 7; 37 °C; GdnHCl; Fluorescence; Sodium phosphate 10 mM; transition: 3; structure 1HK0; whole UniProt chain shown.

Values joined by “and” are separate entries in the source; they are usually repeats but may differ in a detail not shown here. Equal entries are not always repeated.

Regarding F57A, the denaturant m value is 3.9 kcal/mol/M and 3.2 kcal/mol/M; the “denaturant midpoint (higher = more stable)” value (“denaturant midpoint” below) was 1.6 M and 2.9 M; the unfolding free energy is 6.1 kcal/mol and 9.3 kcal/mol.

Take M44A: the denaturant m value is 3.7 kcal/mol/M and 2.8 kcal/mol/M; the “denaturant midpoint” value is 2.2 M and 2.9 M; the unfolding free energy is 7.7 kcal/mol and 8.1 kcal/mol.

As for L145A, the “ddG of mutation (higher = less stable)” value was 1.2 kcal/mol and 1.4 kcal/mol; the denaturant m value was 3.9 kcal/mol/M and 2.9 kcal/mol/M; the “denaturant midpoint” value is 1.6 M and 2.6 M; the unfolding free energy is 6.5 kcal/mol and 7.5 kcal/mol.

For the variant V132A, the “ddG of mutation (higher = less stable)” value is 2.7 kcal/mol and 1.1 kcal/mol; the denaturant m value was 3.7 kcal/mol/M and 3.1 kcal/mol/M; the “denaturant midpoint” value is 1.3 M and 2.5 M; the unfolding free energy was 5 kcal/mol and 7.8 kcal/mol.

V170A: the “ddG of mutation (higher = less stable)” value was -1.3 kcal/mol, the denaturant m value was found to be 4 kcal/mol/M, the “denaturant midpoint” value was 2.5 M and the unfolding free energy amounted to 10.2 kcal/mol.

In the case of I82A, the denaturant m value is 3.7 kcal/mol/M and 3 kcal/mol/M; the “denaturant midpoint” value is 1.5 M and 2.9 M; the unfolding free energy is 5.3 kcal/mol and 8.7 kcal/mol.

Values taken from FireProtDB (doi:10.1110/ps.041111405).
